# Measured values reported in patent US20260184794A1 (MOMENTA PHARMACEUTICALS, published 2026).
# Residue numbers refer to the chain shown, from its start.
# T1: human α11 expressed on CHO-K1 cells (human, UniProt Q9UKX5 23-1188)
# T1 construct: whole, on cells; also called CHO-hu α11; CHO-α11β1
# T1 sequence (Q9UKX5 whole entry, looked up): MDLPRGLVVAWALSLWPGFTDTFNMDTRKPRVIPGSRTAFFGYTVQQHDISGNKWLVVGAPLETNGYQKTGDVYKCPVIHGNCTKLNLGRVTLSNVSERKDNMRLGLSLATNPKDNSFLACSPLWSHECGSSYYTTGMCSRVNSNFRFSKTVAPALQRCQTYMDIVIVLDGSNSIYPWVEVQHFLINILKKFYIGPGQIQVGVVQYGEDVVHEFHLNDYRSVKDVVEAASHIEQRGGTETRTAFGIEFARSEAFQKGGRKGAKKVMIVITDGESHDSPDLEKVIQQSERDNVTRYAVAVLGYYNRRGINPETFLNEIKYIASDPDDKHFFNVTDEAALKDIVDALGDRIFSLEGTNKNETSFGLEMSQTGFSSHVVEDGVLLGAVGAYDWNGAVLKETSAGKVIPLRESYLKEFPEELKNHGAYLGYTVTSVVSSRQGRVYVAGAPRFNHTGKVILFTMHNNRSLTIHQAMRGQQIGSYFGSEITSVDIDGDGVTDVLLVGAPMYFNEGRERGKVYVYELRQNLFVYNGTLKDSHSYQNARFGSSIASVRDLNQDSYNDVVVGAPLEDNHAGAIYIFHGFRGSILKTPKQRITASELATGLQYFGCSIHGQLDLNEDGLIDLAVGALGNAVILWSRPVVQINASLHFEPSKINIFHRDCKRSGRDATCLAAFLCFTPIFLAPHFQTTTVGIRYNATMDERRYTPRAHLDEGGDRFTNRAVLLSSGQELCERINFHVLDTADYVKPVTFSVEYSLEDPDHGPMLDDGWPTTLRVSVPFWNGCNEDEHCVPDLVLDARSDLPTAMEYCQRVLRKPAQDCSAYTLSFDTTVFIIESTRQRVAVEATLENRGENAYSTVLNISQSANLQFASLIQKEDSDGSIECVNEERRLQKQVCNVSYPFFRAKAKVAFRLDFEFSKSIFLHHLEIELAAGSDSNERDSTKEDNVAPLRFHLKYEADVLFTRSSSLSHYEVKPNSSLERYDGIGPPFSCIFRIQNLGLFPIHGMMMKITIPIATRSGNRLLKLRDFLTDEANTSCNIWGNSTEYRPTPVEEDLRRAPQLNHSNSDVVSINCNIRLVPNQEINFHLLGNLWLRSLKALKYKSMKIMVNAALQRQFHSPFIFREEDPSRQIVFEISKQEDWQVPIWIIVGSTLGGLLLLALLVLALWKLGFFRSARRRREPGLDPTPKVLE
# B1: 79E3E3 (antibody, V domains shown)
# VH: QIQLVQSGPEVKKPGESVKISCKASGYTFTDYAMNWVKQAPGNGLKWMGWINTQTGKPTYADDFKQRFVFSLETSARTTYLQINNLNIEDTATYFCTRLGTGNTKGFAYWGQGTLVTVSS
# VL: DILINQSPASLTVSAGERVTMSCKSSQSLLYSENNQDYLAWYQQKPGQFPKLLIYGASNRHTGVPDRFTGSGSGTDFTLTISSVQAEDLADYYCEQTYRYPFTFGSGTKLEIK
# notes: Rat hybridoma antibody; also called Wild Type
# B2: 1994-01-C7 (antibody, V domains shown)
# VH: QVQLVQSGAEVKKPGASVKVSCKASGYTFTSYGISWVRQAPGQGLEWMGWISAYNGNTNYAQKLQGRVTMTTDTSTSTAYMELRSLRSDDTAAYYCARVTGITGTTIDPWGQGTMVTVSS
# VL: DIQMTQSPSSLSASVGDRVTITCRASQSISSYLNWYQQKPGKAPKLLIYDASSLESGVPSRFSGSGSGTEFTLTISSLQPDDFAVYYCQQYNNWPQTFGQGTKVEIK
# notes: Fully human, from phage display (scFv converted to IgG); also called 1994-01-C7 (#9); 1994-01-C07
# B3: 16E10 (antibody, V domains shown)
# VH: QSLEESGGDLVKPGASLTLTCRVSGFSFSSSYYMCWVRQAPGKGLEWIACIGTTRGSTYYATWAKGRFTISKISSTTVTLQMTSLTDADTATYFCARDATGYRINTIGLYFNLWGPGTLVTVSS
# VL: ELTQTPSSVEAAVGGTPTIKCQASQTIYSYLSWYQQKPGQPPKLLIYEASKLASGVPSRFSGSGSGTDYTLTISDLECADAATYYCQSYHGTASTEYNTFGGGTEVVVK
# B4: 1994-01-C7 variant 54 (antibody, V domains shown)
# VH: B2 VH with G56A, D108G
# VL: B2 VL
# B5: 1994-01-C7 variant 58 (antibody, V domains shown)
# VH: B2 VH with G56A, T58V, D108G
# VL: B2 VL
# B6: 1994-01-C7 variant 60 (antibody, V domains shown)
# VH: B2 VH with G56S, D108G
# VL: B2 VL
# Molecular target: T2, recombinant human α11β1 (human, UniProt Q9UKX5 23-1141; P05556 21-728, limits assumed)
# T2 construct: HIS-tagged heterodimer captured by anti-HIS antibody in SPR; also called HIS-tagged human α11β1; soluble human α11β1
# T2 sequence (P05556 21-728 limits assumed, chain 2 of 2, one chain of several): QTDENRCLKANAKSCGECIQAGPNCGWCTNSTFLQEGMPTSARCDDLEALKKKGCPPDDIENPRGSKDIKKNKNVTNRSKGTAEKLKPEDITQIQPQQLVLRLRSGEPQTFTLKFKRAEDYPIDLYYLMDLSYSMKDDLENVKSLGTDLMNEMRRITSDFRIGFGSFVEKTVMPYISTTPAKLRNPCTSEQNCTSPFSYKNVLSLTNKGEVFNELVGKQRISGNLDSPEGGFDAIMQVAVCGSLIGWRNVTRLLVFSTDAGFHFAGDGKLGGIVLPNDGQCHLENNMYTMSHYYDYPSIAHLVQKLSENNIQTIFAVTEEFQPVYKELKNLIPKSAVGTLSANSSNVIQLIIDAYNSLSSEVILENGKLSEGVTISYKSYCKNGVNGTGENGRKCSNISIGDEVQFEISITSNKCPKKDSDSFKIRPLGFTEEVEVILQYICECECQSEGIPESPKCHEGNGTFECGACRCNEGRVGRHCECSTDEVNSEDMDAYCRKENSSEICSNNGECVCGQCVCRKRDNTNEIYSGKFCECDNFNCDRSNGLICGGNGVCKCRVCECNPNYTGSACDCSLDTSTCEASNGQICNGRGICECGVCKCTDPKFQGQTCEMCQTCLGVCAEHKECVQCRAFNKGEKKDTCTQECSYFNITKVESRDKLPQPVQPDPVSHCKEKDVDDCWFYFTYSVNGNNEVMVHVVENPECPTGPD
# Assay: SPR (Biacore T200), HIS-tagged human α11β1 captured by anti-HIS, antibody injected, single cycle kinetics, 1:1 model
# Protocol: The affinity of antibodies for human α11β1 was measured by surface plasm on resonance assay (SPR). Affinity was measured at pH 7.6 and 25° C. with a Biacore T200 instrument. Anti-HIS antibody was immobilized on the SPR sensor surface using EDC/NHS covalent attachment. HIS-tagged human α11β1 was captured on the sensor surface and a single cycle kinetics assay was used. Increasing concentrations of test antibody were injected in series over the sensor-bound α11β1. Dissociation was monitored for 1000 seconds. A sensor surface with only anti-HIS antibody and a series of blank injections were used to double-reference subtract the data. A 1:1 Langmuir model was fit to the data to estimate the kinetic association and dissociation constants. The affinity (equilibrium dissociation constant) of the interaction was calculated by dividing the kinetic dissociation constant by the kinetic association constant. Between injection cycles α11β1 and bound antibody were removed with an injection of 10 mM glycine at pH 1.5.
row,Binder,Kd [nM]
1,B1,1.3
2,B2,0.24
3,B3,0.048

# Molecular target: T3, α11β1 on human pulmonary myofibroblasts (human, UniProt Q9UKX5 23-1188; P05556 21-798)
# T3 construct: whole, on cells; The cells are not transfected; also called HPF/MF
# Assay: flow cytometry on human pulmonary myofibroblasts (title: Myofibroblast Binding); MFI against Log [µg/ml]
# Protocol: (§1) Human Pulmonary Fibroblasts (ScienCell) were cultured in complete Fibroblast Growth Medium (ScienCell) until 80% confluent in T-150 flasks. Cells were washed and harvested using Accutase. Cells were seeded into T-150 flasks at 7,500 cells/cm² in complete FGF and cultured for 72 hours. Cells were then washed and starved in serum reduced medium for 24 hours. After starvation, cells were treated with TGFβ1 (R&D Systems) for 72 hours. Cells were harvested using Accutase and seeded in 96-well conical bottom plates. Cells were blocked with Heat Inactived Fetal Bovine Serum (Gibco) for 30 minutes at 4° C. Cells were then incubated with anti-al I antibodies at the doses described in each figure for 30 minutes at 4° C. A human anti-al I antibody (Creative BioLabs) was included as a positive control as well as the appropriate IgG isotype negative controls. Cells were washed twice and incubated with PE conjugated secondary antibodies specific to the IgG class of the anti-α11 antibodies being tested for 30 minutes at 4° C. Cells were washed twice and fixed in 1% PF A for 30 minutes. Cells were acquired on a FACS Verse […]. Data were analyzed by gating on single cells and determining the geometric Mean Fluorescence Intensity (gMFI) in the PE channel for each sample.
# Target sequence in this assay (P05556 21-798, chain 2 of 2, one chain of several): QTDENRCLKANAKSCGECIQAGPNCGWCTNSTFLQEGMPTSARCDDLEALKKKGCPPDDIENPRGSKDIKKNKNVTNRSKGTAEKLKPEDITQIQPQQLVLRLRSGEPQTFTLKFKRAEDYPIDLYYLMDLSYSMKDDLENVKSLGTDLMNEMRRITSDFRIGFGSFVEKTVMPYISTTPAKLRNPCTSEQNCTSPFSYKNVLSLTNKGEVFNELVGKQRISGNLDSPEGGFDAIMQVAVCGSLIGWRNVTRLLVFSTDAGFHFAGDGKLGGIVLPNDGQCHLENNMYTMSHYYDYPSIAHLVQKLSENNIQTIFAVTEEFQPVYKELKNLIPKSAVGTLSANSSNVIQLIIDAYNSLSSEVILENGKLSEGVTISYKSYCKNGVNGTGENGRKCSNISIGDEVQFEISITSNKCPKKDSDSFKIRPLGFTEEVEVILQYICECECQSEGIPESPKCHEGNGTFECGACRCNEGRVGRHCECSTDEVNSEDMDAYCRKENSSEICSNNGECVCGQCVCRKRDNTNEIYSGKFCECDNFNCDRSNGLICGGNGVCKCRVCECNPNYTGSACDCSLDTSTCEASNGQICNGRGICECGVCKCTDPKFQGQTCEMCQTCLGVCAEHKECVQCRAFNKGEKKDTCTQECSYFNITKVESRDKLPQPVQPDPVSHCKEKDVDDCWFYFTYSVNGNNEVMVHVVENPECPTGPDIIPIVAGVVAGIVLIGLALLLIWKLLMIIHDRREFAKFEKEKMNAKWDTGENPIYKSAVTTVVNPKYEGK
row,Binder,EC50 (read off the curve) [µg/mL]
1,B4,~0.4
2,B5,~0.4
3,B2,~0.5
4,B6,~0.6

# Molecular target: T3, α11β1 on human pulmonary myofibroblasts
# Assay: flow cytometry on TGFβ1-treated human pulmonary fibroblasts (myofibroblasts)
# Protocol: as §1
# Target sequence in this assay (P05556 21-798, one chain of several): as the sequence (P05556 21-798, chain 2 of 2, one chain of several) above
row,Binder,EC50 [nM]
1,B1,3.35
2,B2,3.5
3,B3,0.35

# Molecular target: T1, human α11 expressed on CHO-K1 cells
# Assay: flow cytometry on CHO-K1 cells expressing human α11 (title: CHO-hu α11 Binding); MFI against Log [µg/ml]
# Protocol: (§2) 200,000 cells (wild-type CHO-K1 cells or CHO-K1 cells expressing human α11) were incubated with each antibody at desired concentrations in FACS buffer for 30 min at 4° C. Then, the cells were washed with FACS buffer and incubated with secondary antibody at 1:100 dilution for 30 minutes at 4° C. Cells were then washed and fixed with 1% PF A in PBS for 20 minutes at room temperature; washed again and read on a cytometer in FACS buffer.
row,Binder,EC50 (read off the curve) [µg/mL]
1,B2,~0.4
2,B6,~0.8

# Molecular target: T1, human α11 expressed on CHO-K1 cells
# Assay: cell-based or functional assay
row,Binder,CHO-hu α11 adhesion inhibition (IC50) [nM]
1,B1,9.4
2,B2,3.3
3,B3,0.39

# Molecular target: T1, human α11 expressed on CHO-K1 cells
# Assay: cell-based or functional assay
# Remark: another data set of the same source
row,Binder,"IC50 (read off the curve), inhibition of cell adhesion to type I collagen [µg/mL]"
1,B4,~0.6
2,B5,~0.5
3,B2,~0.5
4,B6,~0.6

# Molecular target: T1, human α11 expressed on CHO-K1 cells
# Assay: flow cytometry on CHO cells expressing human α11 (CHO-α11β1 binding)
# Protocol: as §2
row,Binder,EC50 [nM]
1,B1,3.4
2,B2,3.5
3,B3,0.3
